Results: patent publication US20120030779A1 (UNIVERSITY OF UTAH RESEARCH FOUNDTION, published 2012)

Target: T1, glucose-6-phosphate dehydrogenase (G6PD), mouse heart (mouse, UniProt Q00612 2-515)
T1 construct: Endogenous protein immunoprecipitated or detected with rabbit anti-G6PD; also called G6PDH
Assay: co-immunoprecipitation (anti-G6PD IP, anti-CryAB blot) from NTg mouse heart homogenate
Method: Immunoprecipitation and Immunoblotting: Heart homogenates were first prepared in TBS (10 mM Tris, 150 mM NaCl, pH 7.4) and centrifuged at 10,000 g for 15 minutes at 4° C.

T1 sequence (Q00612 2-515 limits assumed): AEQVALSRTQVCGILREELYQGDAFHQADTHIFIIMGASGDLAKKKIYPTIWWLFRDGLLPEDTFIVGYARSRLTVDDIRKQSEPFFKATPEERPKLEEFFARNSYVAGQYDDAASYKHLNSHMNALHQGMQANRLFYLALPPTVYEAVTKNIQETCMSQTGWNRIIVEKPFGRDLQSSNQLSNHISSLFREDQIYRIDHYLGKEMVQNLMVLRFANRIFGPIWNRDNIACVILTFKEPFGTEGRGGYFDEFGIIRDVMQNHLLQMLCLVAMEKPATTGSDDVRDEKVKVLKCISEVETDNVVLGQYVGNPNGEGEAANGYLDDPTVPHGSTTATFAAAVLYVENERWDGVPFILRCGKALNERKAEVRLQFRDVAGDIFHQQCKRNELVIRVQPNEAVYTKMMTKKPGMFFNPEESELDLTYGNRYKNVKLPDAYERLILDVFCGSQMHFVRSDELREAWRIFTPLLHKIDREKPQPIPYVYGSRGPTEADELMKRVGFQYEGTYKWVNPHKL

binding result: no binding
B1: mouse alphaB-crystallin (endogenous CryAB of non-transgenic mouse heart) (other, UniProt P23927 1-175, looked up)
chain: MDIAIHHPWIRRPFFPFHSPSRLFDQFFGEHLLESDLFSTATSLSPFYLRPPSFLRAPSWIDTGLSEMRLEKDRFSVNLDVKHFSPEELKVKVLGDVIEVHGKHEERQDEHGFISREFHRKYRIPADVDPLTITSSLSSDGVLTVNGPRKQVSGPERTIPITREEKPAVAAAPKK
notes: Only CryAB present in NTg heart extracts; also called CryAB (NTg)
